In article PMC4026020 one finds Kd data, which are given here for two molecules.

Holding throughout (test): fluorescence anisotropy
For orientation: In fluorescence polarisation assays a small probe gives low polarisation when free and higher when bound to something large.

For data set [1], the target named is T1, MBP-AtTZF1 RR-TZF C136R/C171R (Arabidopsis thaliana, UniProt O82307 86-195, C136R;C171R).
T1 sequence: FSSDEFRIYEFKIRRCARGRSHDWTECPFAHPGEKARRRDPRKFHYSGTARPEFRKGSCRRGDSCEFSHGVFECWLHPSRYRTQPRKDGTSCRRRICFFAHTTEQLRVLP

In data set [2] the target is T2, MBP-AtTZF1 RR;MBP-AtTZF1 TZF (Arabidopsis thaliana;Arabidopsis …, UniProt O82307;O82307 86-128;129-195, |).
T2 sequence 1: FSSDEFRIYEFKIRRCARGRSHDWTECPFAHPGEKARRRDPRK
T2 sequence 2: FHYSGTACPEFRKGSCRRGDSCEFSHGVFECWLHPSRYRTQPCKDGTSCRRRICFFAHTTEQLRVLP

The target of data set [3] is T3, MBP-AtTZF1 RR-TZF C101R/C136R/C171R (Arabidopsis thaliana, UniProt O82307 86-195, C101R;C136R;C171R).
T3 sequence: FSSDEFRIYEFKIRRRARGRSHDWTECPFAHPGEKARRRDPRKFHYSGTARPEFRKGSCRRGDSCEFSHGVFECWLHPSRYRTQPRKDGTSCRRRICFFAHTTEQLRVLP

Data set [4] deals with T4, MBP-AtTZF1 RR-TZF C101R (Arabidopsis thaliana, UniProt O82307 86-195, C101R).
T4 sequence: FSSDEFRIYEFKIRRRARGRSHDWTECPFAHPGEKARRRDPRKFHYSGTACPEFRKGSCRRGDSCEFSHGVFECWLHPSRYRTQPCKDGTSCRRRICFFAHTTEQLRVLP

B1: Fl-ARE19 (ssRNA)
RNA: UAUUUAUUAUUUAUUUAUU
What is called Kd is the concentration at which binding is half-saturated. Low values mean a tighter complex, high ones a looser complex. For B1, the results for the Kd in data set [1] and in data set [2] were 1540 ± 50 nM and 610 ± 40 nM, respectively.

B2: Fl-polyU (ssRNA)
RNA: UUUUUUUUUUUUUUUUUUU
Regarding B2, the Kd in data set [3] came to 3110 ± 80 nM; in data set [4] it was 810 ± 40 nM; in data set [1], 1610 ± 40 nM; in data set [2], 4400 ± 100 nM.
